Molecular target: Flag-tagged mouse MRTF-A (MAL fl), in vitro translated
Assay: in vitro protein binding assay (IP/IB of in vitro translated tagged proteins), quantified
Details: IP: HA-gel (HA-CRP2), three independent experiments, parent: 100, read off a plot

| Substance | percent of parent |
| --- | --- |
| HA-tagged human CRP2 (cysteine-and glycine-rich protein 2), in vitro translated (from UniProt Q16527) 153L/D; 158L/D | 22% |
| HA-tagged human CRP2 (cysteine-and glycine-rich protein 2), in vitro translated (from UniProt Q16527) 154E/L; 156T/D; 157T/D | 21% |
